Results published in IntAct's records for PubMed 20618438.

B1: Hereditary hemochromatosis protein (Homo sapiens), Q30201 (parent)
chain: MGPRARPALLLLMLLQTAVLQGRLLRSHSLHYLFMGASEQDLGLSLFEALGYVDDQLFVFYDHESRRVEPRTPWVSSRISSQMWLQLSQSLKGWDHMFTVDFWTIMENHNHSKESHTLQVILGCEMQEDNSTEGYWKYGYDGQDHLEFCPDTLDWRAAEPRAWPTKLEWERHKIRARQNRAYLERDCPAQLQQLLELGRGVLDQQVPPLVKVTHHVTSSVTTLRCRALNYYPQNITMKWLKDKQPMDAKEFEPKDVLPNGDGTYQGWITLAVPPGEEQRYTCQVEHPGLDQPLIVIWEPSPSGTLVIGVISGIAVFVVILFIGILFIILRKRQGSRGAMGHYVLAERE

Assays:
trfe_human TF, P02787 [1] = variants of: B1; conditions: with trfe_human TF
b2mg_human B2M, P61769 [2] = variants of: B1; conditions: with b2mg_human B2M
tfr1_human TFRC, P02786 = variants of: B1; conditions: with tfr1_human TFRC
trfe_human TF, P02787 [3] = variants of: B1; conditions: with trfe_human TF; remark: listed apart in the source
trfe_human TF, P02787 [4] = variants of: B1; conditions: with trfe_human TF; remark: listed apart in the source
trfe_human TF, P02787 [5] = variants of: B1; conditions: with trfe_human TF; remark: listed apart in the source
b2mg_human B2M, P61769 [6] = variants of: B1; conditions: with b2mg_human B2M; remark: listed apart in the source

trfe_human TF, P02787, sequence (P02787 whole entry): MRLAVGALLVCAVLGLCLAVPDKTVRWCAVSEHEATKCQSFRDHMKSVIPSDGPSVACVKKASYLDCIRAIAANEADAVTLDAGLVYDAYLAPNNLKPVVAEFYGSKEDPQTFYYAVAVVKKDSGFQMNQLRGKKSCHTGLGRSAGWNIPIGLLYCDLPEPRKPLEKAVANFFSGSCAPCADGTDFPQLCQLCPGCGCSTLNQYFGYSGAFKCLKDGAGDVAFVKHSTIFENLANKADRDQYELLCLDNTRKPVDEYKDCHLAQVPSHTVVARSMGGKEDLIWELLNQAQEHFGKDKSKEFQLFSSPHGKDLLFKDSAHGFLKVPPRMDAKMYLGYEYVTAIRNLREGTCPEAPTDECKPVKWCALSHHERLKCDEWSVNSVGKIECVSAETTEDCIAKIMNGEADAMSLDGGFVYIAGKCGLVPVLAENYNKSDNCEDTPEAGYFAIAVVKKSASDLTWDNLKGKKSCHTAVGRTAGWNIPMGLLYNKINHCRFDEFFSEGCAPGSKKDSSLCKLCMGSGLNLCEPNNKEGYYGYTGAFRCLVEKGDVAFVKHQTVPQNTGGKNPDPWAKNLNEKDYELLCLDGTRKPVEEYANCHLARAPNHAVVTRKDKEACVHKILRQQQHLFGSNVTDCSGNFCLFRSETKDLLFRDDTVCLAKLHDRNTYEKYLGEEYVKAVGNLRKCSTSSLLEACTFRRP
b2mg_human B2M, P61769, sequence (P61769 whole entry): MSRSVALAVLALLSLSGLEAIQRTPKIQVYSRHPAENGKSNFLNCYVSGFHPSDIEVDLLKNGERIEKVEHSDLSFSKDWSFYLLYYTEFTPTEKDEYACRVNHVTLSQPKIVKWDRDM
tfr1_human TFRC, P02786, sequence (P02786 whole entry, looked up): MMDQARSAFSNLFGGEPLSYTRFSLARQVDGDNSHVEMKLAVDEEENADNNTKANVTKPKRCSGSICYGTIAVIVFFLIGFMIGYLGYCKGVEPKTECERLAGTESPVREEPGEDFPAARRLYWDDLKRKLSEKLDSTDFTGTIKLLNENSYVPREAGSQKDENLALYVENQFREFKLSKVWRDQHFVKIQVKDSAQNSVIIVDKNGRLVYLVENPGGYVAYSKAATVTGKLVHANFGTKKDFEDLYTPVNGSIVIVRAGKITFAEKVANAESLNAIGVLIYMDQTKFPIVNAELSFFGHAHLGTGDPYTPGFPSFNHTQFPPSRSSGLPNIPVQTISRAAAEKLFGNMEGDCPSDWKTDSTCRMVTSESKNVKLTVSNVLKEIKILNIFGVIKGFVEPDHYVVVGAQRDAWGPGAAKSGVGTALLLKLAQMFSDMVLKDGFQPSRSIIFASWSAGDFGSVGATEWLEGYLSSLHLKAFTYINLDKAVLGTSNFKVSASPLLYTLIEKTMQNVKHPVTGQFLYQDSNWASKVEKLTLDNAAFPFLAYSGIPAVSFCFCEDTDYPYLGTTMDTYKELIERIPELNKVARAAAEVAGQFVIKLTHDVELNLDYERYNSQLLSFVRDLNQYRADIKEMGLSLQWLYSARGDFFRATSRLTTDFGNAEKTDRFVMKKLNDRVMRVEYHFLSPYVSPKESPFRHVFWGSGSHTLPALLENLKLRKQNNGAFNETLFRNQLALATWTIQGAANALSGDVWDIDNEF

## N234A
trfe_human TF, P02787 [1]
  effect of a mutation on the interaction: decreasing interaction
b2mg_human B2M, P61769 [2]
  effect of a mutation on the interaction: disrupting interaction

## N110A
tfr1_human TFRC, P02786
  effect of a mutation on the interaction: disrupting interaction
trfe_human TF, P02787 [3]
  effect of a mutation on the interaction: disrupting interaction
trfe_human TF, P02787 [4]
  effect of a mutation on the interaction: decreasing interaction
b2mg_human B2M, P61769 [2]
  effect of a mutation on the interaction: disrupting interaction

## C282Y
trfe_human TF, P02787 [5]
  effect of a mutation on the interaction: disrupting interaction
b2mg_human B2M, P61769 [6]
  effect of a mutation on the interaction: disrupting interaction

## N130A
tfr1_human TFRC, P02786
  effect of a mutation on the interaction: disrupting interaction
trfe_human TF, P02787 [3]
  effect of a mutation on the interaction: disrupting interaction
trfe_human TF, P02787 [4]
  effect of a mutation on the interaction: decreasing interaction
b2mg_human B2M, P61769 [2]
  effect of a mutation on the interaction: disrupting interaction
